Biological target: T1, eNOS (Bos taurus, UniProt P29473, DEL841-841)
T1 construct: made in house; host or cells: E. coli BL21 (pCWori+)
Experiment: NO synthase activity per heme of eNOS mutants
Assay type: biochemical, bovine
Conditions: fully activated state (Ca+2/CaM)
Description: Expression and purification of wild type and mutant bovine eNOS and rat nNOS. Expression and purification of bovine eNOS and rat nNOS were performed using procedures similar to those previously described (Martasek, P.,et al., (1996) Biochem Biophys Res Commun. 219(2); 359-65). Transformed cells were broken with a French press, and after centrifugation to remove cell debris the supernatant was loaded on a 2′5′ADP affinity column, washed, and eluted with 2′AMP as described (id). […] Enzyme sample concentrations were determined on the basis of heme concentration, except in heme free preparations, where the flavin concentration was measured. UV-visible absorbance spectra were recorded on an Aminco DW-2000 spectrophotometer.
Nitric Oxide production was assayed using the Griess assay as adapted for microtiter plates (Gross, S. S. (1996) Methods Enzymol. 268:159-68); calcium dependence was measured using EDTA as a Ca+2 buffer system. […] NADPH-dependent cytochrome c reduction was measured spectrophotometrically as described by McMillan et al (McMillan, K., et al., (1992) Proc Nat. Acad. Sci. U.S.A. 89, 11141-11145), adapted to 96-well plate microtiter plates. […] Cytochrome c reduction was monitored at 550 nm (ε=2.1×104/M). […] Assays were performed on a SpectraMAX plate reader (Molecular Devices).

activity per heme in the fully activated state: 85 % of wild type
B1: G841 deletion mutant: bovine eNOS small insertion mutant with G841 deleted (protein, UniProt P29473 2-1205, looked up, variant G841*)
Nitric oxide synthase 3: GNLKSVGQEPGPPCGLGLGLGLGLCGKQGPASPAPEPSRAPAPATPHAPDHSPAPNSPTLTRPPEGPKFPRVKNWELGSITYDTLCAQSQQDGPCTPRCCLGSLVLPRKLQTRPSPGPPPAEQLLSQARDFINQYYSSIKRSGSQAHEERLQEVEAEVASTGTYHLRESELVFGAKQAWRNAPRCVGRIQWGKLQVFDARDCSSAQEMFTYICNHIKYATNRGNLRSAITVFPQRAPGRGDFRIWNSQLVRYAGYRQQDGSVRGDPANVEITELCIQHGWTPGNGRFDVLPLLLQAPDEAPELFVLPPELVLEVPLEHPTLEWFAALGLRWYALPAVSNMLLEIGGLEFSAAPFSGWYMSTEIGTRNLCDPHRYNILEDVAVCMDLDTRTTSSLWKDKAAVEINLAVLHSFQLAKVTIVDHHAATVSFMKHLDNEQKARGGCPADWAWIVPPISGSLTPVFHQEMVNYILSPAFRYQPDPWKGSATKGAGITRKKTFKEVANAVKISASLMGTLMAKRVKATILYASETGRAQSYAQQLGRLFRKAFDPRVLCMDEYDVVSLEHEALVLVVTSTFGNGDPPENGESFAAALMEMSGPYNSSPRPEQHKSYKIRFNSVSCSDPLVSSWRRKRKESSNTDSAGALGTLRFCVFGLGSRAYPHFCAFARAVDTRLEELGGERLLQLGQGDELCGQEEAFRGWAKAAFQASCETFCVGEEAKAAAQDIFSPKRSWKRQRYRLSTQAEGLQLLPGLIHVHRRKMFQATVLSVENLQSSKSTRATILVRLDTAGQEGLQYQPGDHIGICPPNRPGLVEALLSRVEDPPPPTESVAVEQLEKGSPGPPPSWVRDPRLPPCTLRQALTFFLDITSPPSPRLLRLLSTLAEEPSEQQELETLSQDPRRYEEWKWFRCPTLLEVLEQFPSVALPAPLLLTQLPLLQPRYYSVSSAPNAHPGEVHLTVAVLAYRTQDGLGPLHYGVCSTWLSQLKTGDPVPCFIRGAPSFRLPPDPYVPCILVGPGTGIAPFRGFWQERLHDIESKGLQPAPMTLVFGCRCSQLDHLYRDEVQDAQERGVFGRVLTAFSREPDSPKTYVQDILRTELAAEVHRVLCLERGHMFVCGDVTMATSVLQTVQRILATEGDMELDEAGDVIGVLRDQQRYHEDIFGLTLRTQEVTSRIRTQSFSLQERHLRGAVPWAFDPPGPDTPGP

— patent publication US20050054615A1, “Calmodulin independent activation of nitric oxide synthase” (Rensselaer Polytechnic Institute, priority 2002, published 2005)
